Results: article PMC9536601

Columns and labels:
[1] = target: chimeric hexon of the Ad5 vector Ad5:H6.2 (Ad6 hexon section with HVR7 mutations, on virions) (human adenovirus 5 | human adenovirus 6) (UniProt P04133); test: SPR; Biacore T200; about 300 to 5,000 RU of Ad virions immobilised on a CM5 chip, coagulation factors flowed over at four concentrations, 50 uL/min; running buffer 10 mM HEPES, 150 mM NaCl, 1 mM CaCl2, 0.5 mM MgCl2, 0.1% BSA, 0.05% polysorbate 20, pH 7.4; regeneration with 3 mM EDTA; global fit to a 1:1 kinetic interaction model, double referencing
[2] = target: chimeric hexon of the Ad5 vector Ad5:H57.1 (Ad5 hexon with residues 112-593 from Ad57 hexon, on virions) (human adenovirus 5 | human adenovirus 57) (UniProt P04133); test: as above
[3] = target: hexon of wild-type human adenovirus type 1 (on virions) (human adenovirus 1); test: as above
[4] = target: chimeric hexon of the Ad5 vector Ad5:H1.1 (Ad5 hexon with residues 112-593 from Ad1 hexon, on virions) (human adenovirus 5 | human adenovirus 1) (UniProt P04133); test: as above
[5] = target: chimeric hexon of the Ad5 vector Ad5:H6.1 (Ad5 hexon with residues 112-593 from Ad6 hexon, on virions) (human adenovirus 5 | human adenovirus 6) (UniProt P04133); test: as above
[6] = target: chimeric hexon of the Ad5 vector Ad5:H6.3 (Ad6 hexon section with HVR7 mutations, on virions) (human adenovirus 5 | human adenovirus 6) (UniProt P04133); test: as above
[7] = target: chimeric hexon of Ad5:H6.1 (Ad5 vector, hexon residues 112-593 from Ad6 hexon), on the virion (human adenovirus type 5 | human adenovirus type 6) (UniProt P04133); test: SPR; Biacore T200; about 300 to 5,000 RU of Ad virions immobilised on a CM5 chip, coagulation factors flowed over at four concentrations, 50 uL/min; 10 mM HEPES, 150 mM NaCl, 1 mM CaCl2, 0.5 mM MgCl2, 0.1% BSA, 0.05% polysorbate 20, pH 7.4; global fit to a 1:1 kinetic interaction model, double referencing
[8] = target: chimeric hexon of Ad5:H1.1 (Ad5 vector, hexon residues 112-593 from Ad1 hexon), on the virion (human adenovirus type 5 | human adenovirus type 1) (UniProt P04133); test: as above
[9] = target: chimeric hexon of Ad5:H57.1 (Ad5 vector, hexon residues 112-593 from Ad57 hexon), on the virion (human adenovirus type 5 | human adenovirus type 57) (UniProt P04133); test: as above
[10] = target: chimeric hexon of Ad5:H6.3 (Ad5 vector, hexon residues 112-593 from Ad6 hexon, HVR7 IGNTETF), on the virion (human adenovirus type 5 | human adenovirus type 6) (UniProt P04133); test: as above
[11] = target: chimeric hexon of Ad5:H6.2 (Ad5 vector, hexon residues 112-593 from Ad6 hexon, HVR7 IGNTDTF), on the virion (human adenovirus type 5 | human adenovirus type 6) (UniProt P04133); test: as above

bovine prothrombin (coagulation factor II) (from UniProt P00735 44-625) (natural protein)
Kd [1]: 0.95 µM | koff [1]: 0.0291 s⁻¹ | kon [1]: 30500 M⁻¹ s⁻¹ | Kd [2]: 0.027 µM | koff [2]: 0.000993 s⁻¹ | kon [2]: 37400 M⁻¹ s⁻¹ | Kd [3]: 0.037 µM | koff [3]: 0.00193 s⁻¹ | kon [3]: 52800 M⁻¹ s⁻¹ | Kd [4]: 0.034 µM | koff [4]: 0.00224 s⁻¹ | kon [4]: 65800 M⁻¹ s⁻¹ | Kd [5]: 0.067 µM | koff [5]: 0.0039 s⁻¹ | kon [5]: 58200 M⁻¹ s⁻¹ | Kd [6]: 2.5 µM | koff [6]: 0.0729 s⁻¹ | kon [6]: 29200 M⁻¹ s⁻¹ | Kd [7]: 0.067 µM | Kd [8]: 0.034 µM | Kd [9]: 0.027 µM | Kd [10]: 2.5 µM | Kd [11]: 0.95 µM
